The results in this text go back to patent US6509443.

The chains are these.
B1: IGF-I E3A on phage (G1S-A70V background, gene III fusion) (ligand)
chain: SPATLCGAELVDALQFVCGDRGFYFNKPTGYGSSSRRAPQTGIVDECCFRSCDLRRLEMYCAPLKPAKSV
notes: monovalent on M13 phage; not shown: M13 gene III fragment (residues 249-406) and the junction after residue 70
B2: human IGFBP-1 (other, UniProt P08833 26-259, looked up)
chain: APWQCAPCSAEKLALCPPVSASCSEVTRSAGCGCCPMCALPLGAACGVATARCARGLSCRALPGEQQPLHALTRGQGACVQESDASAPHAAEAGSPESPESTEITEEELLDNFHLMAPSEEDHSILWDAISTYDGSKALHVTNIKKWKEPCRIELYRVVESLAKAQETSGEEISKFYLPNCNKNGFYHSRQCETSMDGEAGLCWCVYPWNGKRIPGSPEIRGDPNCQIYFNVQN
notes: mature

For assay [1], the target named is T1, recombinant human IGFBP-3 (human, UniProt P17936 28-291).
T1 construct: mature
The assay is described as follows: competitive phage ELISA. Here is the method:
(§1) Phage particles were harvested and resuspended in PBS buffer as described in Lowman, H. B., "Phage Display of Peptide Libraries on Protein Scaffolds," in Cabilly, S. (ed.), *Combinatorial Peptide Library Protocols* (Humana Press Inc.: Totowa, N.J., 1998), pp. 249–264. Then phage concentrations were normalized to yield a maximal ELISA signal of 0.2–0.4 for each mutant (Lowman, in Cabilly, S. (ed.), supra). Threefold serial dilutions of soluble competitor were prepared on non-absorbent microtiter plates (Nunc, F, 96 wells) with binding buffer (0.5% TWEEN™ 20/PBS) containing phage at the previously-determined concentrations. […] After blocking, the plates containing immobilized target were washed with 0.05% TWEEN™/PBS buffer and subsequently incubated with 80 μl/well of the premixed phage-competitor solutions for 1 hour at room temperature. […] Numbers in Table I represent mean±standard deviation of individually assessed $IC50$ values.
(§2) At least two different clones of every mutant were tested.
(ELISA stands for enzyme-linked immunosorbent assay.)

The assay “human IGFBP-1” deals with B2. The assay is described as follows: competitive phage ELISA. Here is the method:
as §1, §2

In assay [2] the target is T2, IGF-I F49A on phage (G1S-A70V background, gene III fusion) (human; bacteriophage M13).
T2 chain: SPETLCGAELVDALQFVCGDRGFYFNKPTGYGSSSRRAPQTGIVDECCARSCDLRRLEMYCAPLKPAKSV
The assay is described as follows: phage ELISA on coated IGFBP-3, soluble IGFBP-1 as competitor (FIG. 3A). To be noted: remark: other sources report otherwise.

Assay [3] deals with T3, IGF-I V70A on phage (single mutant of G1S-A70V, gene III fusion) (human; bacteriophage M13).
T3 construct: monovalent on M13 phage; not shown: M13 gene III fragment (residues 249-406) and the junction after residue 70
The assay is described as follows: competitive phage ELISA, soluble vs coated IGFBP-1. Here is the method: as §1, §2

For assay [4], the target named is B1. The assay is described as follows: competitive phage ELISA, soluble vs coated IGFBP-1. Here is the method: as §1, §2
The target of assay [5] is T4, IGF-I S69A on phage (G1S-A70V background, gene III fusion) (human; bacteriophage M13).
T4 construct: monovalent on M13 phage; not shown: M13 gene III fragment (residues 249-406) and the junction after residue 70
The assay is described as follows: competitive phage ELISA, soluble vs coated IGFBP-1. Here is the method: as §1, §2

Assay [6] concerns the target T5, IGF-I S1G on phage (single mutant of G1S-A70V, gene III fusion) (human; bacteriophage M13, UniProt P05019 49-117).
T5 construct: monovalent on M13 phage; not shown: M13 gene III fragment (residues 249-406) and the junction after residue 70
The assay is described as follows: competitive phage ELISA, soluble vs coated IGFBP-1. Here is the method: as §1, §2

In assay [7] the target is T6, IGF-I T4A on phage (G1S-A70V background, gene III fusion) (human; bacteriophage M13).
T6 construct: monovalent on M13 phage; not shown: M13 gene III fragment (residues 249-406) and the junction after residue 70
T6 chain: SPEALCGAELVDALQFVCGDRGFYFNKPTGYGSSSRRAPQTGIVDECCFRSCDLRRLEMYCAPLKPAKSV
The assay is described as follows: competitive phage ELISA, soluble vs coated IGFBP-1. Here is the method:
as §1, §2

Assay [8] addresses T7, IGF-I L5A on phage (G1S-A70V background, gene III fusion) (human; bacteriophage M13).
T7 construct: monovalent on M13 phage; not shown: M13 gene III fragment (residues 249-406) and the junction after residue 70
T7 chain: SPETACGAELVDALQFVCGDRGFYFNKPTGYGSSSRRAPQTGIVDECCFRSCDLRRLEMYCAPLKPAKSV
The assay is described as follows: competitive phage ELISA, soluble vs coated IGFBP-1. Here is the method: as §1, §2

By IC50 is commonly meant the concentration that gives 50% inhibition. Read a low IC50 as inhibition by little substance.

T1 sequence (P17936 28-291): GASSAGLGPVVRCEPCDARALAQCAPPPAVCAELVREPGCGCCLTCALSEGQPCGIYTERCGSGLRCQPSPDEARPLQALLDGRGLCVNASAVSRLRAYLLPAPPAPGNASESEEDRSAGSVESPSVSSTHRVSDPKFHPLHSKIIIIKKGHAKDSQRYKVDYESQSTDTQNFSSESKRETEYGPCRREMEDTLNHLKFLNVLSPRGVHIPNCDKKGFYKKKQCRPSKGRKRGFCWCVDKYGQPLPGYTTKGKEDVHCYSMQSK

Take B1: the binding result (in assay [1]; in the assay with human IGFBP-1) was “binds” each time.
As to B2, in assay [2], the shift of the binding curve against G1S-A70V phage is more than 100 fold. Further, the IC50 in assay [3] was determined as 19.1 nM; in assay [4], 278 nM; in assay [5], 12.8 nM; in [6], 11.2 nM; in assay [7], 19.4 nM; in [8], 55.3 nM.
